Results on one substance are retold here after WO2013151666A2.

This test addresses Low density lipoprotein receptor (LDLR) expressed on HEK293 cells transfected with LDLR modified mRNA (mRNA SEQ ID NO: 21463) (human) (UniProt P01130). The test can be described thus: FACS; rising amounts of BODIPY-LDL on HEK293 cells transfected with LDLR mRNA, 1 h at 37 C.

Chain of Low density lipoprotein receptor (LDLR) expressed on HEK293 cells transfected with LDLR modified mRNA (mRNA SEQ ID NO: 21463) (human) (P01130 22-860): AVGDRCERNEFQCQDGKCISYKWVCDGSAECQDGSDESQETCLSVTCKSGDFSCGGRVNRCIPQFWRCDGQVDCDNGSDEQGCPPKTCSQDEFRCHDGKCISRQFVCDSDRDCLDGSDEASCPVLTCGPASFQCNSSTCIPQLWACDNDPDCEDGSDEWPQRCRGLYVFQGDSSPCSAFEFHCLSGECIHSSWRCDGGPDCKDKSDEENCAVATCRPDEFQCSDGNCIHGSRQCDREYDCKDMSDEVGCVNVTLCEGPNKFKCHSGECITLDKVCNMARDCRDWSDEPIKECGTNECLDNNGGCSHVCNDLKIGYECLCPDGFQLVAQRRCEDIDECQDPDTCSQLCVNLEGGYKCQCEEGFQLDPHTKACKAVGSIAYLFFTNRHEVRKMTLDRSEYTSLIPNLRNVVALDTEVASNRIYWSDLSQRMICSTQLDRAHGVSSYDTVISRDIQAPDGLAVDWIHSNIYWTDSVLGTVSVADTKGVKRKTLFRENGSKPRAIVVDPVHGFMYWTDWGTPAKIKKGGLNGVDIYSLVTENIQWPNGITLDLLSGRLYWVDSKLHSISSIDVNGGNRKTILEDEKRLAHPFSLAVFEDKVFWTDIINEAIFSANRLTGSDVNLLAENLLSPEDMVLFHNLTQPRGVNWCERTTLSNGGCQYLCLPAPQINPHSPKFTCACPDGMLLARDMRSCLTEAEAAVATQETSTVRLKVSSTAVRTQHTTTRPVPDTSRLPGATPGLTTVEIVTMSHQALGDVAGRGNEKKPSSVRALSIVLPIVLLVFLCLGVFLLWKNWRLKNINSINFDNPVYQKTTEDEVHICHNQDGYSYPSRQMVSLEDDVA

Substance “BODIPY-labeled LDL (low density lipoprotein) (from UniProt P04114 28-4563) (ligand)” came in with a Kd of 0.06 µg/mL.
